Data published in the nanobody polyreactivity screen of Harvey et al. (2022).

Assay: yeast display, Sf9 membrane polyspecificity reagent, FACS + sequencing; frameworks hold sequencing errors
Outline: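 Nanobodies came from a synthetic yeast display library in Saccharomyces cerevisiae BJ5465, induced with galactose for 36–48 hours and stained for 1 hour at 4 °C with 10% biotinylated, detergent-solubilized Sf9 membrane reagent. Cells were enriched on streptavidin microbeads and then FACS-sorted, with low and high (top ~1%) gates set on anti-HA fluorescence for expression and streptavidin fluorescence for reagent binding. Each polyreactivity label reflects the gate a clone came from. Genes were amplified by colony PCR, sequenced by MiSeq 2 × 250 and filtered by CDR length.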

Row | Sequence | polyreactivity (PSR sort gate)
1 | QVQLVESGGGLVQAGGSLRLSCAASGRIFGSYVMGWYRQAPGKERELVAAISFSGDTTYYADSVKGRFTISRDNAKNTVYLQMNSLKPEDTAVYYCAAEFPQGYYAFKYDYWGQGTQVTVSS | high polyreactivity
2 | QVQLVESGGGLVQAGGSLRLSCAASGRIFGTNAMGWYRQAPGKEREMVATITRGGGNTYYADSVKGRFTISRDNAKNTVYLQMNSLKPEDTAVYYCAAKFHRFAWFSHYDYWGQGTQVTVSS | low polyreactivity
3 | QVQLVESGGGLVQAGGSLRLSCAASGRIFGTYAMGWYRQAPGKERELGAAITQSGGRTYYADSVKGRFTISRDNAKKTDYLQMKSLKPEDTAVYYCNKVTYRGIGLGYDYWGQGTQVTVSS | high polyreactivity
4 | QVQLVESGGGLVQAGGSLRLSCAASGRIFGTYAMGWYRQAPGKERELVAVITRGGGTKYADSVKGRFTISRDNAKNTVYLQMNSLKPEDTAVYYCAARGRYYGYNYWGQGTQVTVSS | high polyreactivity
5 | QVQLVESGGGLVQAGGSLRLSCAASGRIFGTYGMGWYRPAPGKERELVAAISGGGSTNYADSVKGRFTISRDNAKNTVYLQMNSLKPEDTAVYYCATRWYRFYPSDYWGQGTQVTVSS | low polyreactivity
6 | QVQLVESGGGLVQAGGSLRLSCAASGRIFGTYTMGWYRQAPGKERELVASIRFGGSTYYADSVKGRFTISRDNAKNSVYLQMNSLKPEDTAVYYCNRVYGYNRRYGYWGQGTQVTVSS | high polyreactivity
7 | QVQLVESGGGLVQAGGSLRLSCAASGRIFGVNAMGWYRQAPGKERELVAAISRSGGSTYYADSVKGRFTISRDNAKNTVYLQMNSLKPEDTAVYYCAAVVKYRYSAYGGDYWRQGTQVTVSS | high polyreactivity
8 | QVQLVESGGGLVQAGGSLRLSCAASGRIFGVNAMGWYRQAPGKERELVAAISWSGGSTYYADSVKGRFTISRDNAKNTVYLQMNSLKPEDTAVYYCAADIWFYTYYLGQGTQVTVSS | high polyreactivity
9 | QVQLVESGGGLVQAGGSLRLSCAASGRIFGVYAMGWYRQAPGKERELVAAIRGDGSTNYADSVKGRFTISRDNAKNTVYLQMNSLKPEDTAVYYCATDLGIYSGSPWGYYYWGQGTQVTVSS | low polyreactivity
10 | QVQLVESGGGLVQAGGSLRLSCAASGRIFGVYAMGWYRQAPGKERELVAAISFSGGRTYYADSVKGRFTISRDNAKNTVYLQMNSLKPEDTAVYYCSALGPYDWLWAGDYWGQGTQVTVSS | low polyreactivity
11 | QVQLVESGGGLVQAGGSLRLSCAASGRIFGVYAMGWYRQAPGKERELVAAISGSTTLTYYADSVKGRFTISRDTAKNTVDLQMNSLKPEDTAVYYCAARSYTPSYKMDYWGQGTKVTVSS | high polyreactivity
12 | QVQLVESGGGLVQAGGSLRLSCAASGRIFGVYAMGWYRQAPGKERELVAAITARGGSTYYADSVKGRFTISRDNAKNTVYLQMNSLKPEDTAVYYCATRLYKRTRTITYGYWGQGTQVTVSS | high polyreactivity
13 | QVQLVESGGGLVQAGGSLRLSCAASGRIFGVYTMGWSRQAPGKERELVAAITSGGNTNYADSVKGRFTISRDNAKNNVYLQMNSLKPEDTAVYYCAARSVRNFYYPGHNYRGQGTQVTVSS | low polyreactivity
14 | QVQLVESGGGLVQAGGSLRLSCAASGRIFGWYAMGWYRQAPGKERELVAAIDGGDDSTYYADSVKGRFTISRDNAKNTVYLQMNSLKPEDTAVYYCAVVGYNWGQGSQVTVSS | low polyreactivity
15 | QVQLVESGGGLVQAGGSLRLSCAASGRIFGWYAMGWYRQAPGKERELVAAITSGSRTSYADSVKGRFTISRDNAKNTVYLQMNSLKPVDTAVYYCNRVSHLDYYWGQGTQVTVSS | high polyreactivity
16 | QVQLVESGGGLVQAGGSLRLSCAASGRIFGWYAMGWYRQAPGKERELVAAITWSGTSTYYAYSVKGRFTISRDNAKNTVYLQMNSLKPEDTAVYYCAAEPGWTMDYWGQGTQVTVSS | low polyreactivity
17 | QVQLVESGGGLVQAGGSLRLSCAASGRIFGWYAMGWYRQAPGKERELVADIRYRGGSTYYADSVKGRFTISRDNAKNTVYLQMHSLKPEDTAVYYCAALGFVPVPYDYWGQGTQVNVSS | low polyreactivity
18 | QVQLVESGGGLVQAGGSLRLSCAASGRIFGWYAMGWYRQAPGKEWELVAAITSGSRTSYADSVKGRFTISRDNAKNTDYLQMNSLNPEDTAVYYCARRSYGIYYRSADDSWGQGTQVTGSS | high polyreactivity
19 | QVQLVESGGGLVQAGGSLRLSCAASGRIFGWYTMGWYRQAPGKERELVADINFGGSTYYADSVKGRFTISRDNAKNTVYLQMNSLTPEDTAVYYCNADYSVYIIADEYDYCGQGTQVTVSS | low polyreactivity
20 | QVQLVESGGGLVQAGGSLRLSCAASGRIFGYAMGWYRQAPGKERELVAAITSSGGRTYYADSVKGRFTISRDNVKNTVYLQMNSLKPVDTAVYYCAKKWPVYRSYDYWGQGTQVTVSS | high polyreactivity
21 | QVQLVESGGGLVQAGGSLRLSCAASGRIFGYIAMGWYRPAPGKERELVAAISWSGGSTYYADSVKGRFTISRDNAKNTVYLQMNSLKPEDTAVYYCAADSQDGYFYWGQGTQVTVSS | low polyreactivity
22 | QVQLVESGGGLVQAGGSLRLSCAASGRIFGYNAMGWYRQAPGKERELVAAIRGGGSTYYADSVKGRFTISRDNAKNSVYLQMYSLKPEDSAFYFCAATSYTYVLSPYRGDYWGQGTQVNVSS | high polyreactivity

Row | Sequence | polyreactivity (PSR sort gate)
23 | QVQLVESGGGLVQAGGSLRLSCAASGRIFGYNAMGWYRQAPGKERELVASITSAASTYYADSVKGRFTISRDNAKNTVYLQMNSLKPEDTAVYYCAASAYSALFYWYDYWGQGTQVTVSW | high polyreactivity
24 | QVQLVESGGGLVQAGGSLRLSCAASGRIFGYNAMGWYRQATGNERELVAAITNGGSTNYADSVKGRFTISRDNAKNTVYLQMNSLKPEDTAVYYCAVKWYPPGHDYWGQGTQVTVSS | low polyreactivity
25 | QVQLVESGGGLVQAGGSLRLSCAASGRIFGYNTMGWYRQAPGKERELVAAINSGGRTYYADSVKGRFTISRDNAKNTVYLQMNSLKPEDTAVYYCAKPGLYFATFKKYDYWGQGTQVTVSS | high polyreactivity
26 | QVQLVESGGGLVQAGGSLRLSCAASGRIFGYNTMGWYRQPPGKERELVAAITSTGRTYYADSVKGRFTISRDNAKNTVYLQMNSLKPEDTAVYYCNARSSYGWPKYYYWGQGTQVTVSS | high polyreactivity
27 | QVQLVESGGGLVQAGGSLRLSCAASGRIFGYYAMGWYRPAPGKERELVAGISARGGSTYYADSVKGRFTISRDNAKNTVYLQMNSLKPEDTAVYYCNKTRHDWFRTDSIRESAEYDYWGQGTQVTVSS | low polyreactivity
28 | QVQLVESGGGLVQAGGSLRLSCAASGRIFGYYAMGWYRQAPGKERELVAAIRSSGGSTYYADSVKGRFTISRDNAKNTVYLQMNSLKPEDTAVYYCNKGAAWRPFFGPYYNYEYWGQGTQVTVSS | high polyreactivity
29 | QVQLVESGGGLVQAGGSLRLSCAASGRIFGYYAMGWYRQAPGKERELVAAISSSGGSTYYADSVKGRFTISRDNAKNTVYLQMNSLKPEDTAVYYCAAGGPRVNGYGRAYDYWGQGTQVTVSS | high polyreactivity
30 | QVQLVESGGGLVQAGGSLRLSCAASGRIFGYYAMGWYRQAPGKERELVAAISWTGASTYYADSVKGRFTISRDNAKNTVYLQMNSLKPEDTAVYYCAVDRGLDYYWGQGTQVTVSS | high polyreactivity
31 | QVQLVESGGGLVQAGGSLRLSCAASGRIFGYYAMGWYRQAPGQERELVAAITRNGGSTYYADSVKGRFTISRDNAKNTVYLQMTSLKPEDTAVYYCAATKGGGRGYWGQGTQVTVSS | high polyreactivity
32 | QVQLVESGGGLVQAGGSLRLSCAASGRIFGYYGMGWYRQAPGKERELVAGITSSGGSTYYADSVKGRFTISRDNAKNTVYLQMNSLKPEDTAVYYCNVRRYGSRFDYWGQGTQVTVSS | high polyreactivity
33 | QVQLVESGGGLVQAGGSLRLSCAASGRIFGYYTMGWYRQAPGKERELVAAINGRGTSTYYADSVKGRFTISRDNAKNTVYLQMNSLKPEDTAVYYCAARYTRTVGYDYWGQGTQVTVSS | high polyreactivity
34 | QVQLVESGGGLVQAGGSLRLSCAASGRIFGYYVMGWYRQAPGKERELVATISSGGSTYYADSVKGRFTISRDNAKNTVYLQMNSLKPEDTAVYYCNTDRYHRVDFEYWGQGTQVTVSS | high polyreactivity
35 | QVQLVESGGGLVQAGGSLRLSCAASGRIFHGYAMGWYRQAPGKERELVATIRSGGGTYYADSVKGRFTISRDNAKNSVYLQINSLKPDDTAVYYCNAQSSYSYFSGYDYWGQGSQVTVSS | low polyreactivity
36 | QVQLVESGGGLVQAGGSLRLSCAASGRIFHHNAMGWYRQAPGKERELVATITKSGGSTYADSVKGRFTISRDNAKNTVYLQMNSLKPEDTAVYYCDADVTNRGTWVIYGYYYWGQGTQVTVSS | low polyreactivity
37 | QVQLVESGGGLVQAGGSLRLSCAASGRIFHIYAMGWYRPAPGKERELVAAIRSSGGSTYYADSVKGRFTISRDNAMNTVYLQMNSLKPEDTAVYYCNKYVAYDYWGQGTQVTVSS | low polyreactivity
38 | QVQLVESGGGLVQAGGSLRLSCAASGRIFHLYAMGWYRQAPGKERELVAAITFSGGSTYYADSVKGRFTISRDNAKNTVYLQMNSLKPEDTAVYYCAKRSFYLFSSRLPFKYDYGGQGTQVTVSS | low polyreactivity
39 | QVQLVESGGGLVQAGGSLRLSCAASGRIFHPNVMGWYRQAPGKERELVAAISSGGSTYYADSVKGRFTISRDNAKNTVYLQMNSLKPEDTAVYYCATRIRSGSYPYPRYDYWGQGTQVTVSS | high polyreactivity
40 | QVQLVESGGGLVQAGGSLRLSCAASGRIFHQNTMGWYRQAPGKERELVAAISATGGGTNYADSVKGRFTISRDNAKNTVYLQMNSLKPEDTAVYYCAVRPKTSWYSWYYWGQGTQVTVSS | low polyreactivity
41 | QVQLVESGGGLVQAGGSLRLSCAASGRIFHRNAMGWYRQAPGKERELVARITRSGTSTYYADSVKGRFTISRDNAKNTVYLQMNSLKQEDTAVYYCAADNASPSLGEYNYWGQGTQVTVSS | low polyreactivity
42 | QVQLVESGGGLVQAGGSLRLSCAASGRIFHRNAMGWYRQAPGQERELVARITRSGTSTYYADSVKGRFTISRDNAKNTVYLQMNSLKPEDTAVYYCAADNASPSLGEYNYWGQGTQVTVSS | low polyreactivity
43 | QVQLVESGGGLVQAGGSLRLSCAASGRIFHSNAMGWYRQAPGKESELVADINRDGSTNYADSVKGRFTISRDNAKNTVYLQMNSLKPEDTAVYYCAKPYYSWPRYNHFEYWGQGTQVTVSS | low polyreactivity
